The text below walks through data of PMC6642140, “Boosting NAD^+ with a small molecule that activates NAMPT” (Nature Communications, 2019).

Substrate in the series: Nc1ncnc2c1ncn2[C@@H]1O[C@H](COP(=O)(O)OP(=O)(O)OP(=O)(O)O)[C@@H](O)[C@H]1O
Briefly: Km from NMN production assay with varied ATP; phosphorylates His247. The format is biochemical, Homo sapiens. The note with it: Mg2+ phosphorylation at His247.

Usually Km stands for the concentration of substrate that gives half-maximal velocity.

B1: NAMPT (nicotinamide phosphoribosyltransferase) (Homo sapiens) (protein)
chain: MNPAAEAEFNILLATDSYKVTHYKQYPPNTSKVYSYFECREKKTENSKLRKVKYEETVFYGLQYILNKYLKGKVVTKEKIQEAKDVYKEHFQDDVFNEKGWNYILEKYDGHLPIEIKAVPEGFVIPRGNVLFTVENTDPECYWLTNWIETILVQSWYPITVATNSREQKKILAKYLLETSGNLDGLEYKLHDFGYRGVSSQETAGIGASAHLVNFKGTDTVAGLALIKKYYGTKDPVPGYSVPAAEHSTITAWGKDHEKDAFEHIVTQFSSVPVSVVSDSYDIYNACEKIWGEDLRHLIVSRSTQAPLIIRPDSGNPLDTVLKVLEILGKKFPVTENSKGYKLLPPYLRVIQGDGVDINTLQEIVEGMKQKMWSIENIAFGSGGGLLQKLTRDLLNCSFKCSYVVTNGLGINVFKDPVADPNKRSKKGRLSLHRTPAGNFVTLEEGKGDLEEYGQDLLHTVFKNGKVTKSYSFDEIRKNAQLNIELEAAHH
notes: recombinant, N-terminal His tag removed with thrombin
With B1, the Michaelis constant (Km) is 1730 ± 320 µM.
